Measured values published in patent US20130196336A1.

B1: recombinant human transglutaminase 2 with N-terminal hexahistidine-tag (enzyme)
chain: HHHHHHAEELVLERCDLELETNGRDHHTADLCREKLVVRRGQPFWLTLHFEGRNYEASVDSLTFSVVTGPAPSQEAGTKARFPLRDAVEEGDWTATVVDQQDCTLSLQLTTPANAPIGLYRLSLEASTGYQGSSFVLGHFILLFNAWCPADAVYLDSEEERQEYVLTQQGFIYQGSAKFIKNIPWNFGQFEDGILDICLILLDVNPKFLKNAGRDCSRRSSPVYVGRVVSGMVNCNDDQGVLLGRWDNNYGDGVSPMSWIGSVDILRRWKNHGCQRVKYGQCWVFAAVACTVLRCLGIPTRVVTNYNSAHDQNSNLLIEYFRNEFGEIQGDKSEMIWNFHCWVESWMTRPDLQPGYEGWQALDPTPQEKSEGTYCCGPVPVRAIKEGDLSTKYDAPFVFAEVNADVVDWIQQDDGSVHKSINRSLIVGLKISTKSVGRDEREDITHTYKYPEGSSEEREAFTRANHLNKLAEKEETGMAMRIRVGQSMNMGSDFDVFAHITNNTAEEYVCRLLLCARTVSYNGILGPECGTKYLLNLNLEPFSEKSVPLCILYEKYRDCLTESNLIKVRALLVEPVINSYLLAERDLYLENPEIKIRILGEPKQKRKLVAEVSLQNPLPVALEGCTFTVEGAGLTEEQKTVEIPDPVEAGEEVKVRMDLLPLHMGLHKLVVNFESDKLKAVKGFRNVIIGPA
B2: recombinant human transglutaminase 6 with C-terminal hexahistidine-tag (enzyme, UniProt O95932 1-706, looked up, part only)
chain: MAGIRVTKVDWQRSRNGAAHHTQEYPCPELVVRRGQSFSLTLELSRALDCEEILIFTMETGPRASEALHTKAVFQTSELERGEGWTAAREAQMEKTLTVSLASPPSAVIGRYLLSIRLSSHRKHSNRRLGEFVLLFNPWCAEDDVFLASEEERQEYVLSDSGIIFRGVEKHIRAQGWNYGQFEEDILNICLSILDRSPGHQNNPATDVSCRHNPIYVTRVISAMVNSNNDRGVVQGQWQGKYGGGTSPLHWRGSVAILQKWLKGRYKPVKYGQCWVFAGVLCTVLRCLGIATRVVSNFNSAHDTDQNLSVDKYVDSFGRTLEDLTEDSMWNFHVWNESWFARQDLGPSYNGWQVLDATPQEESEGVFRCGPASVTAIREGDVHLAHDGPFVFAEVNADYITWLWHEDESRERVYSNTKKIGRCISTKAVGSDSRVDITDLYKYPEGSRKERQVYSKAVNRLFGVEASGRRIWIRRAGGRCLWRDDLLEPATKPSIAGKFKVLEPPMLGHDLRLALCLANLTSRAQRVRVNLSGATILYTRKPVAEILHESHAVRLGPQEEKRIPITISYSKYKEDLTEDKKILLAAMCLVTKGEKLLVEKDITLEDFITIKVLGPAMVGVAVTVEVTVVNPLIERVKDCALMVEGSGLLQEQLSIDVPTLEPQERASVQFDITPSKSGPRQLQVDLVSPHFPDIKGFVIVHVATAK
modifications: full-length C-terminal His6 tag

Legend:
[1] = molecular target: serum IgA of gluten ataxia with enteropathy patient GAE 16; test: inhibition ELISA: serum preincubated with soluble TG2, then TG2-coated plate, IgA detection
[2] = molecular target: serum IgG of coeliac disease patient CD1; test: inhibition ELISA: serum preincubated with 50 µg/ml soluble TG2, then TG2-coated plate, IgG detection
[3] = molecular target: serum IgA of the gluten ataxia with enteropathy patients that displayed reactivity towards both TG2 and TG6 (Example 5); test: anti-TG2 IgA ELISA after preincubation of sera with 22.4 µg/ml soluble TG2
[4] = molecular target: serum IgA of the coeliac disease patients that displayed reactivity towards both TG2 and TG6 (Example 5); test: as above
[5] = molecular target: serum IgA of coeliac disease patient CD1; test: inhibition ELISA: serum preincubated with 50 µg/ml soluble TG2, then TG2-coated plate, IgA detection
[6] = molecular target: serum IgA of the gluten ataxia with enteropathy patients that displayed reactivity towards both TG2 and TG6 (Example 5); test: anti-TG6 IgA ELISA after preincubation of sera with 22.4 µg/ml soluble TG2
[7] = molecular target: serum IgA of the coeliac disease patients that displayed reactivity towards both TG2 and TG6 (Example 5); test: as above
[8] = molecular target: serum IgA of gluten ataxia with enteropathy patient GAE 16; test: inhibition ELISA: serum preincubated with soluble TG6, then TG2-coated plate, IgA detection
[9] = molecular target: serum IgA of the gluten ataxia with enteropathy patients that displayed reactivity towards both TG2 and TG6 (Example 5); test: anti-TG6 IgA ELISA after preincubation of sera with 22.4 µg/ml soluble TG6
[10] = molecular target: serum IgA of the coeliac disease patients that displayed reactivity towards both TG2 and TG6 (Example 5); test: as above
[11] = molecular target: serum IgA of the gluten ataxia with enteropathy patients that displayed reactivity towards both TG2 and TG6 (Example 5); test: anti-TG2 IgA ELISA after preincubation of sera with 22.4 µg/ml soluble TG6
[12] = molecular target: serum IgA of the coeliac disease patients that displayed reactivity towards both TG2 and TG6 (Example 5); test: as above

| Binder | percent blocked [1] | percent blocked [2] | mean inhibition (%) [3] | mean inhibition (%) [4] | percent blocked [5] | mean inhibition (%) [6] | mean inhibition (%) [7] | percent blocked [8] | mean inhibition (%) [9] | mean inhibition (%) [10] | mean inhibition (%) [11] | mean inhibition (%) [12] |
| --- | --- | --- | --- | --- | --- | --- | --- | --- | --- | --- | --- | --- |
| B1 | 6% | 93% | 55% | 37% | 52% | 14% | 18% | – | – | – | – | – |
| B2 | – | – | – | – | – | – | – | 37% | 61% | 71% | 15% | 1% |
